Changes are numbered by the printed parent chain.
B1: 2HSI1 (VHH)
VHH: QVQLQESGGGVVQAGDSLRLSCVASGRTFSSLDMGWFRQAPGKEREFVAGISRSGISQYYADSMKGRFTISRDNAKNLVYLQMNSLKPEDTAVYYCAAALTFRGSDLPRDSNYWGQGTQVTVSS
notes: The entry includes the C-terminal AAA linker, HA tag and His6 tag, as expressed from pMECS
B2: 2HSI3 (VHH)
VHH: B1 VHH with R19K
notes: as for B1
B3: 2HSI24 (VHH)
VHH: B1 VHH with A40T
notes: as for B1
B4: 2HSI31 (VHH)
VHH: B1 VHH with K65R
notes: as for B1
B5: 2HSI32 (VHH)
VHH: B1 VHH with S54T, Q58A, P88S
notes: as for B1
B6: 2HSI40 (VHH)
VHH: B1 VHH with N77S
notes: as for B1
B7: 2HSI44 (VHH)
VHH: B1 VHH with V11L, D16G, V23T
notes: as for B1
B8: 2HSI49 (VHH)
VHH: B1 VHH with A14T
notes: as for B1
B9: 2HSI54 (VHH)
VHH: B1 VHH with D62N
notes: as for B1
B10: 2HSI55 (VHH)
VHH: B1 VHH with S17P
notes: as for B1
B11: 2HSI57 (VHH)
VHH: B1 VHH with V11L, D16G, V23A
notes: as for B1
B12: 2HSI68 (VHH)
VHH: B1 VHH with V11W, A14P, D16G, V23E, F29S, S54T, Q58A, P88S
notes: as for B1
B13: 2HSI77 (VHH)
VHH: B1 VHH with V11S, D16G
notes: as for B1
B14: 2HSI80 (VHH)
VHH: B1 VHH with I51V
notes: as for B1
B15: 2HSI88 (VHH)
VHH: B1 VHH with R27H
notes: as for B1
B16: 2HSI90 (VHH)
VHH: B1 VHH with G26E
notes: as for B1
B17: 2HSI98 (VHH)
VHH: B1 VHH with R19G
notes: as for B1
B18: 2HSI102 (VHH)
VHH: B1 VHH with T28A
notes: as for B1
B19: 2HSI105 (VHH)
VHH: B1 VHH with K87R
notes: as for B1
B20: 2HSI109 (VHH)
VHH: B1 VHH with V11S, S54T, Q58A, P88S
notes: as for B1
B21: 2HSI110 (VHH)
VHH: B1 VHH with V11L, A14S
notes: as for B1
B22: 2HSI113 (VHH)
VHH: B1 VHH with V11L
notes: as for B1
B23: 2HSI86 (VHH)
VHH: B1 VHH with V11L, A14P, D16G, V23A, M83I
notes: as for B1
B24: 2HSI35 (VHH)
VHH: B1 VHH with V11L, A14P, D16G, V23A, R27F, S30G, S31G, L32Y
notes: as for B1
B25: 2HSI89 (VHH)
VHH: B1 VHH with G26E, D106N
notes: as for B1
B26: 2HSI22 (VHH)
VHH: QVQLQESGGGLVQPGGSLRLSCAASGLNFRRYTMGWFRQAPGKEREFVGVINWSDDSIYYADSVKGRFAISRDNTKNTVYLQMASLKPEDTAVYYCAASPQWDTRVRQTMRGKYDYWGQGTQVTVSS
notes: as for B1

Experiments:
[1] = biological target: T1, His6-tagged recombinant extracellular domain of human signal regulatory protein alpha (hSIRP1α) (human, UniProt P78324 31-373); experiment: ELISA, crude periplasmic extracts on coated His6-tagged hSIRP1α extracellular domain
T1 construct: extracellular domain; also called antigen; not shown: His6 tag
Experimental: The VHH library was panned on solid-phase coated antigen (200 μg/ml in 100 mM NaHCO₃, pH 9.3) for 3 rounds. The enrichment for antigen-specific phages was assessed after each round of panning by comparing the number of phagemid particles eluted from antigen-coated wells with the number of phagemid particles eluted from negative control (uncoated blocked) wells. […] There was no enrichment after the 1st panning round. In total, 190 colonies from panning round 2 were randomly selected and analyzed by ELISA for the presence of antigen-specific VHHs in their periplasmic extracts (ELISA using crude periplasmic extracts including soluble VHHs) (see FIG. 5). The antigens used for panning and ELISA screening were the same as the ones used for immunization, using uncoated blocked wells as negative control. […] Based on sequence data of the positive colonies, 27 different full length VHHs were distinguished (see FIGS. 4A, 4B, and 5 and SEQ ID Nos: 300-326).

[2] = biological target: T2, full length human SIRPA expressed on transiently transfected Hek293T cells (pMET7 FLAG-hSIRPA) (human, UniProt P78324 31-504); experiment: FACS, serial dilution of purified VHH on hSIRPA- or empty vector (MOCK)-transfected Hek293T cells; FITC-coupled anti-HA antibody
T2 construct: whole, on cells; also called human SIRP1α; human SIRPα
Experimental: Expression-vectors (pMECS) encoding the 27 putative human SIRPA binding VHHs were transformed to WK6 cells. VHHs (with a C-terminal HA and His-tag) were expressed in periplasmic extracts upon IPTG overnight stimulation and purified from the periplasmic extracts using the HisPur Cobalt Spin Plates (ThermoFisher) according to the manufacturer's guidelines. Purified VHHs were applied in a FACS binding-assay at 1 μg/ml: Hek293T cells were transiently transfected with a full length human SIRPA plasmid (pMET7 FLAG-hSIRPA) or an empty vector (MOCK). Two days after transfection, cells were resuspended and incubated with purified VHH in FACS buffer (PBS+0.5 mM EDTA+3% FBS). VHH binding was detected using a FITC-coupled anti-HA Ab (Genscript). Samples were acquired with a MACSQuant X instrument (Miltenyi Biotec) and analyzed using the FlowLogic software (Miltenyi Biotec).
Based on this initial binding-experiment and on the comparison of the 27 sequences, 5 VHHs (4 members of sequence group 1 which encompasses 26 sequences and 2HSI22 which is a unique representative of sequence group 2) were studied in more detail for binding to human SIRPA. Binding in FACS was measured as described above. In brief, hSIRPA or empty vector (MOCK) transfected cells were incubated with a serial dilution of purified VHH and binding detected using a FITC-coupled anti-HA Ab (GenScript). Data are summarized in FIG. 7 and illustrate concentration dependent specific binding to hSIRPA for all 5 VHHs.

T2 sequence (P78324 31-504): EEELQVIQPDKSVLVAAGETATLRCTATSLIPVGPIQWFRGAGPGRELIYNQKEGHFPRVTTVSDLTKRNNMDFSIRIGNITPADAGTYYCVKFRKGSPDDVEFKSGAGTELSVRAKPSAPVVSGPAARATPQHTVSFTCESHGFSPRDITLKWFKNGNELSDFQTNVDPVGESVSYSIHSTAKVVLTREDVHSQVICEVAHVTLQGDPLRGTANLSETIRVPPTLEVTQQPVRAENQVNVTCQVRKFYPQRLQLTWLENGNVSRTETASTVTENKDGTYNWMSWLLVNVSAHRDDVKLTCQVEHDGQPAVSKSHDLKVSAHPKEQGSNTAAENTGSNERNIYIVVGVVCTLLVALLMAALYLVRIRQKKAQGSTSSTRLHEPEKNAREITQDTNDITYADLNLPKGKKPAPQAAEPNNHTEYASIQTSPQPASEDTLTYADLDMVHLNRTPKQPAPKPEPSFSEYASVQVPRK
T1 sequence (P78324 31-373): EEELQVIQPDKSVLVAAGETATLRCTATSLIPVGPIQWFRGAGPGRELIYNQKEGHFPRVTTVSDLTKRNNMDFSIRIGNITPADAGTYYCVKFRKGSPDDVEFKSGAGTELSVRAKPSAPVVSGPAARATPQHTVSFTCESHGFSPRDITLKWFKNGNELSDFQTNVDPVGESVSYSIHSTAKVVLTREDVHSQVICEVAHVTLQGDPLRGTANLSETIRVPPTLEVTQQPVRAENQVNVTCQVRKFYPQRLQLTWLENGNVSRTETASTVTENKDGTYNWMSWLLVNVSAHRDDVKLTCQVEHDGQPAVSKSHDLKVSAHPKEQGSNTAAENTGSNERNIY

Binder | binding result [1] | binding result [2]
B1 | binds | 
B2 | binds | 
B3 | binds | 
B4 | binds | 
B5 | binds | binds
B6 | binds | 
B7 | binds | 
B8 | binds | 
B9 | binds | 
B10 | binds | 
B11 | binds | 
B12 | binds | 
B13 | binds | 
B14 | binds | 
B15 | binds | 
B16 | binds | 
B17 | binds | 
B18 | binds | 
B19 | binds | 
B20 | binds | 
B21 | binds | 
B22 | binds | 
B23 | binds | binds
B24 | binds | binds
B25 | binds | binds
B26 | binds | binds

— US20240368277A1 (ORIONIS BIOSCIENCES, published 2024)
